± gives the uncertainty stated by the source.
Experiment: self-splicing fitness, log relative to wild type (ln ratio); higher = more splicing; Tetrahymena group I intron in knt gene, E. coli kanamycin selection, DiMSum; sequences stand for … in CUCUCU…GGAGGGAAAAGUUAUCAGGCAUGCACCUGGUAGCUAGUCUUUAAACCAAUAGAUUGCAUCGGUUUAAAAGGCAAGACCGUCAAAUUGCGGGAAAGGGGUCAACAGCCGUUCAGUACCAAGUCUCAGGGGAAACUUUGAGAUGGCCUUGCAAAGGGUAUGGUAAUAAGCUGACGGACAUGGUCCUAACCACGCAGCCAAGUCCUAAGUCAACAGAUCUUCUGUUGAUAUGGAUGCAGUUCACAGACUAAAUGUCGGUCGGGGAAGAUGUAUUCUUCUCAUAAGAUAUAGUCGGACCUCUCCUUAAUGGGAGCUAGCGGAUGAAGUGAUGCAACACUGGAGCCGCUGGGAACUAAUUUGUAUGCGAAAGUAUAUUGAUUAGUUUUGGAGUACUCGUGGUCG
How it was run: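 Colonies from six replicate transformations of E. coli BL21(DE3) were pooled and amplicon-sequenced on an Illumina HiSeq 2500. The library placed an intron with all eight P1ex-region nucleotides randomised inside the knt kanamycin-resistance gene on pET-22b(+), and cells grew overnight at 37°C or 30°C on LB agar with or without 25 μg/mL kanamycin (plus 100 μg/mL carbenicillin, 50 μM IPTG, 0.2% rhamnose). Fitness is the DiMSum error-weighted combination of wild-type-normalised replicate fold changes, kanamycin versus none.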

| Sequence | self-splicing fitness (ln) (30 °C) | self-splicing fitness (ln) (37 °C) |
| --- | --- | --- |
| UGCUAGCAAUAUUACGUUAA | -2.54 ± 0.14 | -0.941 ± 0.11 |
| GCGCAGCAAUAUUACGGGCC | -2.96 ± 0.22 | -3.25 ± 0.27 |
| CGGUAGCAAUAUUACGAGGU | -3.59 ± 0.25 | -2.03 ± 0.25 |
| CAAUAGCAAUAUUACGGGCU | -3.42 ± 0.16 | -1.4 ± 0.12 |
| UUAUAGCAAUAUUACGAUUG | -1.01 ± 0.13 | -0.505 ± 0.2 |
| UGUCAGCAAUAUUACGUGAA | -0.122 ± 0.068 | 0.427 ± 0.083 |
| UUUCAGCAAUAUUACGGUAU | -3.02 ± 0.19 | -1.67 ± 0.15 |
| UAACAGCAAUAUUACGUUUG | -2.13 ± 0.079 | -0.759 ± 0.081 |
| AUUUAGCAAUAUUACGAGGG |  | -1.34 ± 0.28 |
| UAAGAGCAAUAUUACGCGUA | -1.55 ± 0.29 | 0.00439 ± 0.15 |
| CUGUAGCAAUAUUACGACCC | -1.04 ± 0.43 |  |
| CCUGAGCAAUAUUACGAUGG | -4.46 ± 0.21 | -2.58 ± 0.19 |
| ACCUAGCAAUAUUACGAUGG | -3.01 ± 0.17 | -0.981 ± 0.18 |
| CAUGAGCAAUAUUACGGUCA | -2.96 ± 0.2 | -2.57 ± 0.22 |
| CAUAAGCAAUAUUACGACUU | -3.55 ± 0.24 | -1.5 ± 0.16 |
| GUACAGCAAUAUUACGUACG | -4.18 ± 0.31 | -2.2 ± 0.19 |
| CACGAGCAAUAUUACGUUAU | -3.4 ± 0.19 | -3.62 ± 0.31 |
| AGCCAGCAAUAUUACGAAAG | -3.13 ± 0.22 | -3.22 ± 0.38 |
| AUUAAGCAAUAUUACGUCGC | -3.33 ± 0.22 | -2.8 ± 0.25 |
| AUGAAGCAAUAUUACGCGCU | -0.561 ± 0.082 | 0.35 ± 0.11 |

| Sequence | self-splicing fitness (ln) (30 °C) | self-splicing fitness (ln) (37 °C) |
| --- | --- | --- |
| AAGAAGCAAUAUUACGCGUA | -1.39 ± 0.099 | -0.914 ± 0.082 |
| CAACAGCAAUAUUACGCUGC | -3.4 ± 0.23 | -2.21 ± 0.36 |
| UACGAGCAAUAUUACGUUGU | -3.36 ± 0.16 | -2.68 ± 0.18 |
| ACUAAGCAAUAUUACGCAAA | -2.51 ± 0.24 | -1.77 ± 0.24 |
| GUCUAGCAAUAUUACGAUUG |  | -2.14 ± 0.26 |
| ACAUAGCAAUAUUACGUGUG | -2.41 ± 0.065 | -1.58 ± 0.069 |
| CUUGAGCAAUAUUACGAACG | -0.921 ± 0.13 | 0.12 ± 0.18 |
| GUUCAGCAAUAUUACGAAUG | -0.469 ± 0.076 | 0.0253 ± 0.11 |
| AAUCAGCAAUAUUACGAGUU | -0.331 ± 0.049 | 0.000416 ± 0.074 |
| ACUCAGCAAUAUUACGCUGU | -3.46 ± 0.19 | -1.4 ± 0.17 |
| UAAUAGCAAUAUUACGCAGA |  | -0.288 ± 0.16 |
| CCCUAGCAAUAUUACGUCCA | -2.95 ± 0.23 | -2.83 ± 0.31 |
| AUAAAGCAAUAUUACGCCGC | -2.8 ± 0.18 | -2.05 ± 0.27 |
| CGUGAGCAAUAUUACGCAGA |  | -1.49 ± 0.38 |
| AACGAGCAAUAUUACGGCUU | -0.938 ± 0.076 | -0.225 ± 0.1 |
| GGACAGCAAUAUUACGCAUA | -0.761 ± 0.094 | 0.314 ± 0.12 |
| AUAUAGCAAUAUUACGCGGU | -2.75 ± 0.18 | -2.28 ± 0.19 |
| GGUUAGCAAUAUUACGGUCU | -0.263 ± 0.12 | 0.162 ± 0.15 |
| GCGCAGCAAUAUUACGUGCG | -4.36 ± 0.28 | -2.7 ± 0.21 |
